# Data as given in patent publication US20120213763A1 (COUNCIL OF SCIENTIFIC AND INDUSTRIAL RESEARCH, published 2012).
# Positions count from the first letter of the chain named. Numbers in names are those of the source. Read-outs that look alike come from different tables or passages of the source.
# B1: bi-pegylated NC 1-383 (SEQ ID NO 493), Cys at N - 1 and at C + 1 position in SK (1-383, G3) (other)
# chain: CIAGPEWLLDRPSVNNSQLVVSVAGTVEGTNQDISLKFFEIDLTSRPAHGGKTEQGLSPKSKPFATDSGAMSHKLEKADLLKAIQEQLIANVHSNDDYFEVIDFASDATITDRNGKVYFADKDGSVTLPTQPVQEFLLSGHVRVRPYKEKPIQNQAKSVDVEYTVQFTPLNPDDDFRPGLKDTKLLKTLAIGDTITSQELLAQAQSILNKNHPGYTIYERDSSIVTHDNDIFRTILPMDQEFTYRVKNREQAYRINKKSGLNEEINNTDLISEKYYVLKKGEKPYDPFDRSHLKLFTIKYVDVDTNELLKSEQLLTASERNLDFRDLYDPRDKAKLLYNNLDAFGIMDYTLTGKVEDNHDDTNRIITVYMGKRPEGENASYHLAGGGC
# modifications: PEG on the Cys at N - 1 and on the C-terminal Cys placed after three glycine residues
# B2: bi-pegylated NC 1-414 (SEQ ID NO 491), Cys at N - 1 and at C + 1 position in SK (other)
# chain: CIAGPEWLLDRPSVNNSQLVVSVAGTVEGTNQDISLKFFEIDLTSRPAHGGKTEQGLSPKSKPFATDSGAMSHKLEKADLLKAIQEQLIANVHSNDDYFEVIDFASDATITDRNGKVYFADKDGSVTLPTQPVQEFLLSGHVRVRPYKEKPIQNQAKSVDVEYTVQFTPLNPDDDFRPGLKDTKLLKTLAIGDTITSQELLAQAQSILNKNHPGYTIYERDSSIVTHDNDIFRTILPMDQEFTYRVKNREQAYRINKKSGLNEEINNTDLISEKYYVLKKGEKPYDPFDRSHLKLFTIKYVDVDTNELLKSEQLLTASERNLDFRDLYDPRDKAKLLYNNLDAFGIMDYTLTGKVEDNHDDTNRIITVYMGKRPEGENASYHLAYDKDRYTEEEREVYSYLRYTGTPIPDNPNDKC
# modifications: PEG (methoxy-PEG maleimide, 20 KDa) on the Cys at N - 1 and on the Cys at C + 1
# B3: native streptokinase nSK (1-414) ATCC 12449 (SEQ ID NO 1) (other)
# chain: IAGPEWLLDRPSVNNSQLVVSVAGTVEGTNQDISLKFFEIDLTSRPAHGGKTEQGLSPKSKPFATDSGAMSHKLEKADLLKAIQEQLIANVHSNDDYFEVIDFASDATITDRNGKVYFADKDGSVTLPTQPVQEFLLSGHVRVRPYKEKPIQNQAKSVDVEYTVQFTPLNPDDDFRPGLKDTKLLKTLAIGDTITSQELLAQAQSILNKNHPGYTIYERDSSIVTHDNDIFRTILPMDQEFTYRVKNREQAYRINKKSGLNEEINNTDLISEKYYVLKKGEKPYDPFDRSHLKLFTIKYVDVDTNELLKSEQLLTASERNLDFRDLYDPRDKAKLLYNNLDAFGIMDYTLTGKVEDNHDDTNRIITVYMGKRPEGENASYHLAYDKDRYTEEEREVYSYLRYTGTPIPDNPNDK
# B4: PEGylated SK K121C (SEQ ID NO 35) (other)
# chain: B3 chain with K121C
# modifications: PEG (thiol-reactive methoxy-PEG maleimide) on Cys 121
# B5: PEGylated SK Ser 258 Cys (SEQ ID NO 49) (other)
# chain: B3 chain with S258C
# modifications: PEG (thiol-reactive methoxy-PEG maleimide) on Cys 258
# B6: PEGylated SK N255C (SEQ ID NO 46) (other)
# chain: B3 chain with N255C
# modifications: PEG (thiol-reactive methoxy-PEG maleimide) on Cys 255
# B7: PEGylated SK D102C (SEQ ID NO 32) (other)
# chain: B3 chain with D102C
# modifications: PEG (thiol-reactive methoxy-PEG maleimide) on Cys 102
# B8: PEGylated SK L179C (SEQ ID NO 41) (other)
# chain: B3 chain with L179C
# modifications: PEG (thiol-reactive methoxy-PEG maleimide) on Cys 179
# B9: PEGylated SK Lys 257 Cys (SEQ ID NO 48) (other)
# chain: B3 chain with K257C
# modifications: PEG (thiol-reactive methoxy-PEG maleimide) on Cys 257
# B10: PEGylated SK D96C (SEQ ID NO 31) (other)
# chain: B3 chain with D96C
# modifications: PEG (thiol-reactive methoxy-PEG maleimide) on Cys 96
# B11: PEGylated SK S105C (SEQ ID NO 33) (other)
# chain: B3 chain with S105C
# modifications: PEG (thiol-reactive methoxy-PEG maleimide) on Cys 105
# B12: PEGylated SK D173C (SEQ ID NO 39) (other)
# chain: B3 chain with D173C
# modifications: PEG (thiol-reactive methoxy-PEG maleimide) on Cys 173
# B13: PEGylated SK D95C (SEQ ID NO 30) (other)
# chain: B3 chain with D95C
# modifications: PEG (thiol-reactive methoxy-PEG maleimide) on Cys 95
# B14: PEGylated SK L260C (SEQ ID NO 50) (other)
# chain: B3 chain with L260C
# modifications: PEG (thiol-reactive methoxy-PEG maleimide) on Cys 260
# B15: PEGylated SK N-Cys (SEQ ID NO 489), Cys at N - 1 position in SK (other)
# chain: CIAGPEWLLDRPSVNNSQLVVSVAGTVEGTNQDISLKFFEIDLTSRPAHGGKTEQGLSPKSKPFATDSGAMSHKLEKADLLKAIQEQLIANVHSNDDYFEVIDFASDATITDRNGKVYFADKDGSVTLPTQPVQEFLLSGHVRVRPYKEKPIQNQAKSVDVEYTVQFTPLNPDDDFRPGLKDTKLLKTLAIGDTITSQELLAQAQSILNKNHPGYTIYERDSSIVTHDNDIFRTILPMDQEFTYRVKNREQAYRINKKSGLNEEINNTDLISEKYYVLKKGEKPYDPFDRSHLKLFTIKYVDVDTNELLKSEQLLTASERNLDFRDLYDPRDKAKLLYNNLDAFGIMDYTLTGKVEDNHDDTNRIITVYMGKRPEGENASYHLAYDKDRYTEEEREVYSYLRYTGTPIPDNPNDK
# modifications: PEG (thiol-reactive methoxy-PEG maleimide) on the Cys at N - 1 position
# B16: PEGylated SK C-Cys (SEQ ID NO 490), Cys at C + 1 position in SK (other)
# chain: IAGPEWLLDRPSVNNSQLVVSVAGTVEGTNQDISLKFFEIDLTSRPAHGGKTEQGLSPKSKPFATDSGAMSHKLEKADLLKAIQEQLIANVHSNDDYFEVIDFASDATITDRNGKVYFADKDGSVTLPTQPVQEFLLSGHVRVRPYKEKPIQNQAKSVDVEYTVQFTPLNPDDDFRPGLKDTKLLKTLAIGDTITSQELLAQAQSILNKNHPGYTIYERDSSIVTHDNDIFRTILPMDQEFTYRVKNREQAYRINKKSGLNEEINNTDLISEKYYVLKKGEKPYDPFDRSHLKLFTIKYVDVDTNELLKSEQLLTASERNLDFRDLYDPRDKAKLLYNNLDAFGIMDYTLTGKVEDNHDDTNRIITVYMGKRPEGENASYHLAYDKDRYTEEEREVYSYLRYTGTPIPDNPNDKC
# modifications: PEG (thiol-reactive methoxy-PEG maleimide) on the Cys at C + 1 position
# Experiments:
# Experiment in all cases: cell-based or functional assay
# [1] = target: human plasminogen (HPG) (human) (UniProt P00747)
# human plasminogen (HPG) (human), sequence (P00747 97-810): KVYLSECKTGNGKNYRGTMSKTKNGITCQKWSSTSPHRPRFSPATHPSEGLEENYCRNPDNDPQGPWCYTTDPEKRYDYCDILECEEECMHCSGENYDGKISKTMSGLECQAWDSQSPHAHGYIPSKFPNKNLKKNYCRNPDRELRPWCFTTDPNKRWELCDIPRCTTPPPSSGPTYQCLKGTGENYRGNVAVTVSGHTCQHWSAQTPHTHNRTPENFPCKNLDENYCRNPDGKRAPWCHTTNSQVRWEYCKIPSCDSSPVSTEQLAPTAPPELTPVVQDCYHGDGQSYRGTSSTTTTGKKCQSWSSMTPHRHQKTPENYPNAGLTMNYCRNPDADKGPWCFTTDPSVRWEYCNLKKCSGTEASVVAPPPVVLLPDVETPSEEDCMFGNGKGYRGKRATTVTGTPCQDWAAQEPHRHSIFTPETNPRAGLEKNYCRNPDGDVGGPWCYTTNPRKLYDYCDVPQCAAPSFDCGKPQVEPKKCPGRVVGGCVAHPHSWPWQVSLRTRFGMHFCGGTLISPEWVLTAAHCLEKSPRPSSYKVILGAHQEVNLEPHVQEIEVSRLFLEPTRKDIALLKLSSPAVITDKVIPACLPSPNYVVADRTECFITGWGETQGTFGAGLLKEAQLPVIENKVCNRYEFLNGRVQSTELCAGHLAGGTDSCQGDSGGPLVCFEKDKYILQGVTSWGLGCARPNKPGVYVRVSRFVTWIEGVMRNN
# human plasminogen (HPG) [2] = target: T1, human plasminogen (HPG) (human, UniProt P00747 97-810)
# T1 sequence (P00747 97-810): as above
# human plasminogen (HPG) [3] = target: T1, human plasminogen (HPG); remark: listed apart in the source
molecule,measurement,setting,value
"PEGylated SK C-383 Cys (SEQ ID NO 492), Cys at C + 1 position of SK 1-383, G3 (from UniProt P00779 27-409)",% Plasminogen activation,[1],92%
B1,% Plasminogen Activation* (pre-complexed with equimolar plasmin),human plasminogen (HPG) [2],92%
same,% Plasminogen activation,human plasminogen (HPG) [2],< 5%
same,Lag,human plasminogen (HPG) [2],12 min
B2,% Plasminogen Activation* (pre-complexed with equimolar plasmin),human plasminogen (HPG) [2],88%
same,% Plasminogen activation,human plasminogen (HPG) [2],< 5%
same,Lag,human plasminogen (HPG) [2],14 min
B3,% Plasminogen Activation* (pre-complexed with equimolar plasmin),human plasminogen (HPG) [2],100%
same,% Plasminogen activation,human plasminogen (HPG) [2],100%
same,Lag,human plasminogen (HPG) [2],1 min
same,% Plasminogen activation,human plasminogen (HPG) [3],100%
B4,% Plasminogen activation,human plasminogen (HPG) [3],95%
B5,% Plasminogen activation,human plasminogen (HPG) [3],100%
B6,% Plasminogen activation,human plasminogen (HPG) [3],98%
B7,% Plasminogen activation,human plasminogen (HPG) [3],74%
B8,% Plasminogen activation,human plasminogen (HPG) [3],22%
B9,% Plasminogen activation,human plasminogen (HPG) [3],92%
B10,% Plasminogen activation,human plasminogen (HPG) [3],98%
B11,% Plasminogen activation,human plasminogen (HPG) [3],76%
B12,% Plasminogen activation,human plasminogen (HPG) [3],72%
B13,% Plasminogen activation,human plasminogen (HPG) [3],96%
B14,% Plasminogen activation,human plasminogen (HPG) [3],100%
B15,% Plasminogen activation,human plasminogen (HPG) [3],88%
B16,% Plasminogen activation,human plasminogen (HPG) [3],95%
